Measured values taken from publication PMC4028186.

Experiments:
[1] = target: 50S ribosomal subunit of E. coli (E. coli) (UniProt P0A7L0); assay: stopped-flow Rayleigh light scattering of subunit association; naked 30S (0.25 µM final) mixed with 50S (0.25 µM final) preincubated with ObgE or ObgE-NG (0.5-20 µM in the mix); HEPES polymix buffer pH 7.5, 37°C; Ki from the midpoint of k obs against concentration
[2] = target: 50S ribosomal subunit of E. coli (E. coli) (UniProt P0A7L0); assay: stopped-flow Rayleigh light scattering of subunit association; 30S-preIC (0.25 µM final; mRNA, fMet-tRNAfMet, IF1, IF2, GTP) mixed with 50S (0.25 µM final) preincubated with ObgE or ObgE-NG; HEPES polymix buffer pH 7.5, 37°C; Ki from the midpoint of k obs against concentration
[3] = target: 50S ribosomal subunit of E. coli (E. coli) (UniProt P0A7L0)
[4] = target: 50S ribosomal subunit of E. coli (E. coli) (UniProt P0A7L0); assay: co-sedimentation; as a1, with 0.5 mM ppGpp

Sequence of UniProt P0A7L0 (P0A7L0 whole entry, looked up): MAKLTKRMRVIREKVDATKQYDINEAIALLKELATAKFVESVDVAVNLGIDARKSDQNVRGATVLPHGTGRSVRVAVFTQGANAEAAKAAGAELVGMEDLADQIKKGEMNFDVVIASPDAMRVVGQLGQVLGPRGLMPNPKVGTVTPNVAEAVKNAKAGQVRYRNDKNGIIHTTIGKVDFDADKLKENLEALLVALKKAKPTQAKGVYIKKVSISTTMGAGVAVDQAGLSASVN

Row | Substance | Ki [1] | Ki [2] | further results
1 | 30S ribosomal subunit of E. coli (naked 30S subunit) (complex) |  |  | k obs of subunit association (without ObgE) [1]: 4 s⁻¹
2 | mRNA programmed 30S-preinitiation complex (30S-preIC) (from UniProt P69222 1-72; P0A705 1-890) |  |  | k obs of subunit association (without ObgE) [2]: 20 s⁻¹
3 | ObgE-NG (CTD deleted construct of ObgE, residues 1-340) (from UniProt P42641 1-340) (domain or fragment) | 3.7 µM | 1 µM | 
4 | ObgE (Obg protein in Escherichia coli), full-length, His-tagged (from UniProt P42641 1-390) (enzyme) | 2 µM | 0.3 µM | GTP hydrolysis rate of ObgE (MESG assay, phosphate release) with increasing amounts of 50S subunits up to an equal amount; without 50S ∼0.0268 min^−1; stimulated about 120-fold [3]: 3.15 min⁻¹; fold occupancy on the 50S subunit against the apo state [4]: > 5 fold
